Experimental findings from article PMC6092394 are described below.

In test [1] the target is TRPC5, CFP- or YFP-tagged (UniProt Q9QX29). Description: FRET or BRET; three-cube FRET in living cells expressing Gαq (WT)-YFP, M3 and TRPC1α with TRPC4β-CFP or CFP-TRPC5; after stimulation with 100 μM CCh. In general terms: Bioluminescence resonance energy transfer reports proximity on the nanometre scale.
Test [2] deals with TRPC4β, CFP- or YFP-tagged (UniProt Q9QUQ5). Described as above.
UniProt Q9QUQ5, sequence (Q9QUQ5 other isoform, or with tags, fused parts or gaps): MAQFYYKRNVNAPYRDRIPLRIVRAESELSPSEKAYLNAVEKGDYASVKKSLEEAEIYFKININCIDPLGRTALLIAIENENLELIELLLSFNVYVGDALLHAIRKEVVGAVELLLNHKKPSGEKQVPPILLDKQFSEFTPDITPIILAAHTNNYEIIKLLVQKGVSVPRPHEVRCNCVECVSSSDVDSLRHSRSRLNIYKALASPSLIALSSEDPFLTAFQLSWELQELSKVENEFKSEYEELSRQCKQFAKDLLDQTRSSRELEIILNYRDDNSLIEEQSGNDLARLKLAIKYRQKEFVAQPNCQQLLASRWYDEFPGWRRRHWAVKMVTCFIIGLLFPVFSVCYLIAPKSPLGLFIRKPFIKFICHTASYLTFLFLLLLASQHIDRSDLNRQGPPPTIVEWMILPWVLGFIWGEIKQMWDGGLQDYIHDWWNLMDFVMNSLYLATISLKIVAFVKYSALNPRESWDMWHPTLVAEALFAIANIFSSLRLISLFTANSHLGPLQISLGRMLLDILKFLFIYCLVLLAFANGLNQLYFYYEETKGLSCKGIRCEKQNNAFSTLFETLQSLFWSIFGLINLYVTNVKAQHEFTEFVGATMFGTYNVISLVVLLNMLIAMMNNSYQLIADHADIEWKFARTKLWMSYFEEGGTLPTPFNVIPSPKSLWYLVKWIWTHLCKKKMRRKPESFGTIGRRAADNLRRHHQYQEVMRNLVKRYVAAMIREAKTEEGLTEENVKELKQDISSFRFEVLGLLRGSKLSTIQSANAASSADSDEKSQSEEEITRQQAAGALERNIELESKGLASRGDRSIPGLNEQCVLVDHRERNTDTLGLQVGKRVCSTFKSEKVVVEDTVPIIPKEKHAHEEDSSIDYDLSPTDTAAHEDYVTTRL

UniProt Q9QX29, sequence (Q9QX29 whole entry): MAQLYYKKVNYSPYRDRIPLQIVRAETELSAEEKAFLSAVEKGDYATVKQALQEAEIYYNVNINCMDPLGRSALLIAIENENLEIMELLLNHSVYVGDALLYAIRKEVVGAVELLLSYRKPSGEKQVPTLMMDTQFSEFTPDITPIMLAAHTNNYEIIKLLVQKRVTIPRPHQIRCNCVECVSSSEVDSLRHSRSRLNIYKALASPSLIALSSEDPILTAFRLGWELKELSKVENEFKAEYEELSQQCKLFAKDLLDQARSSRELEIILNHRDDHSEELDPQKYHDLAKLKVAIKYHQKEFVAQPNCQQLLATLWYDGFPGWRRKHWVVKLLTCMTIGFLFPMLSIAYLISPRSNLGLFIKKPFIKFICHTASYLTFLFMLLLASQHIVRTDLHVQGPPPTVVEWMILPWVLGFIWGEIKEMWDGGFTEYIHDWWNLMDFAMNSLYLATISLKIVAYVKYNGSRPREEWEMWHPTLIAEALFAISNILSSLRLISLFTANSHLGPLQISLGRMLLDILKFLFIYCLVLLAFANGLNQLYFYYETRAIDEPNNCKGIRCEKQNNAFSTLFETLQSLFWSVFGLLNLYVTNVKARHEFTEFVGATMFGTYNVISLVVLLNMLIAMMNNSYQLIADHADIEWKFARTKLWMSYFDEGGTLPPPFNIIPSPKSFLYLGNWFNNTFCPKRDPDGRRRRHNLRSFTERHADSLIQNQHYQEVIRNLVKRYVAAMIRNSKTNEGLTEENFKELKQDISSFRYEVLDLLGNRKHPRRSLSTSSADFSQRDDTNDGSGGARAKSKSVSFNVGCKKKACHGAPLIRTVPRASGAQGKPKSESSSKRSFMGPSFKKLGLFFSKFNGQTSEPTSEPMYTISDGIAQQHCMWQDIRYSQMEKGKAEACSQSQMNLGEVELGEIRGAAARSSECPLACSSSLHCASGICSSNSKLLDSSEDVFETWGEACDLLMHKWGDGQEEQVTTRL

With “Gαq (WT)-YFP (from UniProt P50148 1-359) (natural protein)”, the figures for the FRET efficiency (after 100 μM CCh) in test [1] and in test [2] were 15.9% and 8.8%, respectively.
